Experimental data published in patent publication US20220009987A9, “HUMAN RESISTIN COMPOSITIONS AND METHODS OF TREATING TLR4-MEDIATED DISEASE AND INFECTION” (THE REGENTS OF THE UNIVERSITY OF CALIFORNIA, priority 2017, published 2022).
“Also recorded” adds a separate entry of the source.

Key:
CD14+CD11b+ monocytes = experiment: Competitive resistin/LPS binding assay on human PBMCs (flow cytometry); type: cell-based; conditions: for LPS binding to CD14+CD11b+ monocytes: pre-incubation before LPS-biotin, on ice
Experimental: (§1) Human PBMCs. Human buffy coat was purchased from Zen-bio. Buffy coat was overlaid on top of Histopaque-1077 and spun at 700g at 25° C. with no brake and PBMCs were recovered from the interphase. PBMCs were plated in 96-well plates and stimulated with mammalian-derived human resistin (1 μg/mL, LifeSpan Biosciences) or hRetn N-peptide (1 μg/mL). After 24 hours, ultrapure LPS (100 ng/mL, Invivogen) was added and supernatants recovered for ELISA at 24 hours. Where indicated, cells were incubated for 4 hours with STAT3 (5, 15-DPP, 50 μM) or TBK1 (BX-795, 1 μM) inhibitors prior to hRetn treatment. For the hRetn competitive binding assay, 1×10^6 cells were incubated with recombinant hRetn (0.5 μg), washed in PBS then incubated with 0.5 μg LPS-biotin (incubations were 30 minutes on ice). Cells were washed in FACS buffer, treated with Fc block, and stained with BV605-conjugated streptavidin and α-human primary antibodies: CD14 (clone M5E2), CD11 b (clone M1/70) and MD2/TLR4 (clone HTA125) purchased from Affymetrix.

TLR4 [1] = target: T1, TLR4 (Mus musculus, UniProt Q9QUK6); experiment: hRetn cellular binding assay on dissociated lung cells from Nb-infected Tlr4+/+ or Tlr4−/− mice; type: cell-based; conditions: Ly6C+CD11b+ lung cells, Nb-infected mice
T1 construct: from tissue; host or cells: dissociated lung cells (monocytes, alveolar macrophages, neutrophils) of day 7 Nb-infected mice
T1 sequence (Q9QUK6 26-835): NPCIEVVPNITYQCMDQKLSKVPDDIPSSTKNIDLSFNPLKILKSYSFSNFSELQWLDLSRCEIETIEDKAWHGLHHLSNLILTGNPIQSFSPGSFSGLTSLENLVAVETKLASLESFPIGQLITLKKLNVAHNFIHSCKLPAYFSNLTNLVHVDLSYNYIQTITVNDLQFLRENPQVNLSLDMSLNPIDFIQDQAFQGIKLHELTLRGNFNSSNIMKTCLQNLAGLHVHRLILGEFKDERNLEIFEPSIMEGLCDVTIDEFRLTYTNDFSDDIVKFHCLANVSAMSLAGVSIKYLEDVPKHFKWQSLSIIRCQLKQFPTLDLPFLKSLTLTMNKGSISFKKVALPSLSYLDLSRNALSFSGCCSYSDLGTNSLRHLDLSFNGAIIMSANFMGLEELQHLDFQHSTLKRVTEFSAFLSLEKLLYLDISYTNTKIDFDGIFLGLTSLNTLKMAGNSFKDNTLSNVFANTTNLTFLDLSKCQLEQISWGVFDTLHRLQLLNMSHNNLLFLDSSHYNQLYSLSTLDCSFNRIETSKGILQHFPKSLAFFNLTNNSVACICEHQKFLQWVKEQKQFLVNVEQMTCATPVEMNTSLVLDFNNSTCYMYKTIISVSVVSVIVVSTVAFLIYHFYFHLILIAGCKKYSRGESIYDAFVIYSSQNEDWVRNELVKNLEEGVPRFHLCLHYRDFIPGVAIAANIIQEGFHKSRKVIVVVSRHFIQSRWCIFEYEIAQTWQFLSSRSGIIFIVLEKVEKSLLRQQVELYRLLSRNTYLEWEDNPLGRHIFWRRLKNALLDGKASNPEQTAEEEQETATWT
Experimental: (§2) Binding Assay and Flow Cytometry. Single cell suspension of lung tissue was prepared and hRetn binding was measured as previously described in Jang et al., 2015, supra. Briefly, dissociated lung cells were incubated for 1 hour at 4° C. with 0.5 μg recombinant hResistin (Peprotech) or PBS, followed by 2× wash in FACS buffer, incubation with Fc block (5 μg/mL αCD16/32 and 10 μg/mL purified rat IgG1, 5 min at 4° C.). Cells were stained with biotinylated α-hRetn (Peprotech, 30 min at 4° C.) followed by detection with BV605-conjugated streptavidin (BD) and surface marker antibodies. To collect peritoneal exudate cells (PECs), the peritoneal cavity was washed and PECs recovered in 5 mL ice cold PBS. Surface marker antibodies were: F4/80 (clone A3-1), SiglecF (clone E50-2440), CD4 (clone RM4-5), Ly6C (HK1.4), CD11b (clone M1/70), CD11c (clone N418), Ly6G (clone 1A8), MHCII (clone M5/114.15.2) and CD3e (clone 145-2C11), CD115 (clone AFS98), purchased from Affymetrix, BD Biosciences or Biolegend. Cell populations were determined as follows: peritoneal macrophage (F4/80+CD11b+), neutrophils (Ly6G+CD11b+), eosinophils (SiglecF+CD11c−) and monocyte (Ly6C+CD11b+), alveolar macrophages (F4/80+CD11c+). For flow cytometric analysis, all samples were run on the BD LSRII and analyzed on FlowJo (v10).

TLR4 [2] = experiment: as above; type: cell-based, mouse
Experimental: as §2

human PBMCs = experiment: Human PBMC functional assay, LPS-induced cytokine secretion (ELISA); type: cell-based
Experimental: as §1
Cytokine Quantification. Sandwich ELISAs were performed using capture and biotinylated antibodies for human resistin (Peprotech), IL-10 and TNFα (BD Biosciences) according to manufacturer's instructions. Detection was performed with streptavidin-peroxidase (Jackson ImmunoResearch) and TMB peroxidase substrate (BD Biosciences), followed by addition of 2N H2SO4. Optical density (OD) was captured at 450 nm. Samples were compared to serial-fold dilution of recombinant protein. For Luminex, inflammatory cytokine kits (Affymetrix) were run according to manufacturer's instructions and quantified on Luminex MagPix (Luminex Corp.). For cytokine bead array, cytokine kits from BD Bioscience were run according to manufacturer's instructions on BD LSRII and analyzed using FCAP Array Software.

[3] = human PBMC, pre-treatment then LPS 100 ng/mL

B1: hRetn: human resistin protein (hRetn) having an amino acid sequence of SEQ ID NO: 1; recombinant, E. coli-derived or 293T cell-derived (protein, listed as Homo sapiens)
chain: MKALCLLLLPVLGLLVSSKTLCSMEEAINERIQEVAGSLIFRAISSIGLECQSVTSRGDLATCPRGFAVTGCTCGSACGSWDVRAETTCHCQCAGMDWTGARCCRVQP
- cell population binding hRetn in human PBMC (CD14+CD11b+ monocytes; flow cytometry): CD11b+CD14+ monocytes were the dominant population that bound hRetn
- LPS-promoted surface MD2/TLR4 complex formation (CD14+CD11b+ monocytes; human PBMC, flow cytometry): abrogated
- LPS binding to CD14+CD11b+ monocytes (CD14+CD11b+ monocytes): significantly abrogated
- LPS binding to CD14+CD11b+ monocytes (CD14+CD11b+ monocytes; listed as full-length hRetn): inhibited LPS binding
- hRetn binding to Tlr4+/+ monocytes (TLR4 [1]): able to bind hRetn
- hRetn binding to alveolar macrophages (TLR4 [2]; F4/80+CD11c+ lung cells, Tlr4+/+ vs Tlr4−/−): TLR4-dependent binding
- hRetn binding to Tlr4−/− monocytes (TLR4 [2]; Ly6C+CD11b+ lung cells, Nb-infected mice): significantly abrogated
- hRetn binding to neutrophils in the absence of TLR4 (TLR4 [2]; Ly6G+CD11b+ lung cells, Tlr4−/−): not noticeably affected
- frequency of hRetn-bound cells in monocytes (TLR4 [2]; lung cells, Nb-infected mice): 15%
- frequency of hRetn-bound cells in neutrophils (TLR4 [2]; lung cells, Nb-infected mice): 8%
- hRetn functional effect on TNFα and IL-10 when STAT3 signaling was inhibited (human PBMCs; human PBMC, 5,15-DPP 50 μM 4 hours prior to hRetn): also abrogated
- hRetn functional effect on TNFα and IL-10 in the presence of TBK1 inhibitor (human PBMCs; human PBMC, BX-795 1 μM 4 hours prior to hRetn): abrogated
- IL-10 expression after LPS (human PBMCs; [3]): increased IL-10 expression
- LPS-induced TNFα secretion (human PBMCs; [3]): significantly more TNFα than cells treated with hRetn and LPS; also recorded: significantly reduced LPS-induced TNFα secretion
